Measurements: patent US20160320413A1 (D GEN, published 2016)

Molecular target: abnormal human PrP (disease associated PrP, including PrPSc) from vCJD brain homogenate, blood or ur (human, UniProt P04156 23-230)

B1: ICSM18 anti-PrP antibody (D-Gen Ltd, product code 0130-01810), biotinylated (antibody, V domains shown)
VH: EVQLQQSGPELVKPGSSVKISCKASRNTFTDYNLDWVKQSHGKTLEWIGNVYPNNGVTGYNQKFRGKATLTVDKSSSTAYMELHSLTSEDSAVYYCALYYYDVSYWGQGTLVTVSA
VL: QIVLTQSPAIMSASPGEKVTMTCSASSSVSYMHWYQQKSGTSPKRWIYDTSKLASGVPARFSGSGSGTSYSLTISSMEAEDAATYFCHQWRSNPYTFGGGTKLEIKR
- ratio relative to cut off: 1.17
